Data published in the DeepSol protein solubility set.

Test: soluble on expression in E. coli; label from the status in PepcDB or PDB records

Sequence | soluble on expression in E. coli
MASVPENQAPKAIFTFSPEDPVTDENVVFNASNSIDEDGTIAYYVWDFGDGYEGTSTTPTITYKYKNPGTYKVKLIVTDNQGASSSFTATIKVTSATGDNSKFNFEDGTLGGFTTSGTNATGVVVNTTEKAFKGERGLKWTVTSEGEGTAELKLDGGTIVVPGTTMTFRIWIPSGAPIAAIQPYIMPHTPDWSEVLWNSTWKGYTMVKTDDWNEITLTLPEDVDPTWPQQMGIQVQTIDEGEFTIYVDAIDWLEHHHHHH | soluble
MKTPTFGKREETLTYQTRYAAYIIVSKPENNTMVLVQAPNGAYFLPGGEIEGTETKEEAIHREVLEELGISVEIGCYLGEADEYFYSNHRQTAYYNPGYFYVANTWRQLSEPLERTNTLHWVAPEEAVRLLKRGSHRWAVEKWLAAASLEHHHHHH | soluble
MKEYKRPDMYDKLLPMERIHIEVFEPFNGEAIEGKYSYVLLCRDYRSSFMWLLPLKSTKFKHLIPVVSSLFLTFARVPIFVTSSTLDKDDLYDICEEIASKYGLRIGLGLKSSARFHTGGILCIQYALNSYKKECLADWGKCLRYGPYRFNRRRNKRTKRKPVQVLLSEVPGHNAKFETKRERVIENTYSRNMFKMAGGKGLIYLEDVNTFALANEADNSCNNNGILHNNNIGNDNFEEEVQKQFDLTEKNYIDEYDDLAHDSSEGEFEPNTLTPEEKPPHNVDEDRIESTGVAAPMQGTEEPEKGDQKESDGASQVDQSVEITRPETSYYQTLESPSTKRQKLDQQGNGDQTRDFGTSMEL | not soluble
MAHHHHHHMSSDTMPFKLVEPFVLFHTIFSDDFQHPQVAMITQACGSHSTASNQSTSHFLQIFFDFPLHVEPNEAPTDLIFLCKWGTSHSSHTPPHGNDVNVTRTNFLFRQCSQKKSATDY | not soluble
MNQEQNDIAIRVSNLSKCYHIYDTPRDRLKQFILPRLHHLTGQTPRQYFREFWALRDVSFEVKKGETIGIIGRNGSGKSTLLQMICGTLNPTSGSITTYGRIAALLELGSGFNPEFTGRENVYMNASVLGLSQEETDARFDDIAAFADIGEFIEQPVKTYSSGMMVRLGFAVQAQVKPDILIVDEALAVGDAKFQAKCFDRLQQLKDGGTSILLVTHSSEQIVTHCSEAILLDGGDVIEHGEPRYVVNHYMDLLFGKERKSYSASAFSTESNSVEPTQDDNLSLNFIDDVFSSHANYNEHEYRWGDGTATILDFYLLTDNEPYPSVITSGQSVVLGVAVRFYEDLVRPILGITIKTKEGVTVYGVNSETLETDEIKVLGSKGTTALIKAEFICRLAPGDYFISLGLATRKGEEIVPHDRRYDAIYLQIAPVTKFFGLVDLGLKLSAQNTSLLEHHHHHH | soluble
MQNTAHIIGAGISGLSAAVRLANAGFKVAVHEATHQAGGRCRSYFDGATNLTIDNGNHLLLSGNSHARAYARSIGTEAGLVGPESAQFPFVDIKTGQRWQIDLGTGRLPTWVLDESRRVPDTGLTDYLKLAPLIWASEETLVGKSIPTEGVLYQRLVQPLLLAALNVDPPEGSAGLAGAIVRETLLAGGQACRPLIARDGLSAVLIEPAVKFLQERGHSVQLGHELRAFVTSDGKAGALNFGGEDVIQLADGDVVVMAVPPRAAASLLPGLKTPTEFRAIVNAHFRFEPPPGSPPILGVIGGIVEWLFAFPNRLSVTISNGDRLVDMPREELAQAIWNDVCEAGGVSGELPPWQIVRERRATFAATPAQNALRPGPVTALKNLFLAGDWTATGLPATIEGSVRSGDRAADLVLAAQRPLEHHHHHH | not soluble
MGSDKIHHHHHHMALSADSRLQFTSDLNICRILNGMWQVSGGHGKINAPAAIKTMFQYVDAGFTTWDLADHYGPAEDFIGEFRRQLVANRGKEALANIQAFTKWVPRPGRMTKKLVEENIDISRRRMDVESLDLMQFHWWDYQDKNYLDALKYMAELQTEGKIKHLALTNFDTEHLQIITEAGIKIVSNQVQFSLVDRRPEVNMVKFCQQHDIKLFTYGTLCGGLLSEKYIGKPEPRGFDLGTTSLRKYKNMVDAWGGWHLFQELLSTLKQIADKHGVSIANVATRYILDKPAVGGVIVGARLGISEHIADNAKVFSFTLDAEDSNVINTISSQSRDLYQLIGDCGDEYRR | not soluble
MAKAAAGKKASPVKRVKKGGKAKDPNAPKRAMSAFFFWMQENRERIKKPGMGVADVAKAAGVEWGKLTDKSRWEKKAADDKKRYEVDIANYKKSQ | soluble
MSLIVKFCGFKTESDIKKIKKLEVDAVGFIHYPDSKRHVSLKQLKYLAKIVPDHIEKVVVVVNPQMSTIKRIINQTDINTIQLHGNESIQLIRNIKKLNSKIRIIKAIPATRNLNNNIQKYKDEIDMFIIDTPSITYGGTGQSFDWKLLKKIKGVDFLIAGGLDFEKIKRLEIYSFGQCGYDISTGIESHNEKDFNKMTRILKFLKGDEGHHHHHH | not soluble
MGSDKIHHHHHHMKDNYDAPESMLTGRVMYNGEALQLRGNEAVQLQLYQHGYAKHDPINVYVNQDGMYSANLFDGEYQMITKSGNGPWTSEGRDTINVTVAGNTVQDVEVTPYYLVRDAQMTLEGNKVNASFKVEKVAGGGIDRVFFMLSTTQFVNDAEHNVDRYDETDNLDAYDETGKLYTFATRDYTDNSMFQTALKRGTLFGRICIWPKGSDQGIYSKVIRLK | not soluble
MAHMVNGKVALVTGAAQGIGRAFAEALLLKGAKVALVDWNLEAGVQCKAALHEQFEPQKTLFIQCDVADQQQLRDTFRKVVDHFGRLDILVNNAGVNNEKNWEKTLQINLVSVISGTYLGLDYMSKQNGGEGGIIINMSSLAGLMPVAQQPVYCASKHGIVGFTRSAALAANLMNSGVRLNAICPGFVNTAILESIEKEENMGQYIEYKDHIKDMIKYYGILDPPLIANGLITLIEDDALNGAIMKITTSKGIHFQDYGSKENLYFQ | soluble
MSLKIGIVKHLNARPLTWGFEKNKKHEIVPENPAILKDYLLNGTIDLGLISSIECIRNDHVLNTYYGTGVCAREKVRSILFFKNKRENFPPKQILTDNGSKTSVALVRVLIYEESGLIPYVEPTDSKLIQEKISNGIGSHMLFGDNALLAKWNPEFYEVKDLAQWWNELTGLGFIFALWASKKSLKLDDLIFIQSLEYGVSHIEEIISHESRLSSTLVREYLTKELHYKITEEDQKGFLLFREKCSQLNLLEGHHHHHH | soluble
MNSSSASIPRTAHAAVPTAHASRYLQQLCKHWAHKFEAEFDPIQARIALPLGEARLTARPDALLIDLTATDAANMTTFQQVVISHIERFAFREELRFVWG | not soluble
HHHHHHENLYFQGSMDALQLANSAFAVDLFKQLSEKEPLGNVLFSPIALSTSLSLAQVGAKGDTANEIGQVLHFENVKDVPFGFQTVTSDVNKLSSFYSLKLIKRLYVDKSLNLSTEFISSTKRPYAKELETVDFKDKLEETKGQINNSIKDLTDGHFENILADNSVNDQTKILVVNAAYFVGKWMKKFSESETKESPFRVNKTDTKPVQMMNMEATFSMGNIDSINSKIIELPFQNKHLSMFILLPKDVEDESTGLEKIEKQLNSESLSQWTNPSTMANAKVKLSIPKFKVEKMIDPKASLENLGLKHIFSEDTSDFSGMSETKGVALSNVIHKVSLEITEDGGDSIEVPGARILQHKDELNADHPFIYIIRHNKTRNIIFFGKFSSP | soluble
AIAQRFLDSISAATQAKSPAEHETLVAMADLYAIITCVEYLERAWRANAVSDEDYTRNCSRLIAQFRATRQLVMDDVPSVISFLEEYHLAARAAMNRLQVGVPATVEHANSSDETRRRNFTAAAIQATEAFLTFRDALELGERSVDRLLPYLREILLVLGRMGAVFGTADGDATVQRERIVQWVRRLDAMHAYEQITEEDKRQLAHDVDTLYDTFRRRVGELEM | soluble
MGSDKIHHHHHHMEITSKTYLSTILGNDLAAGFYPTPLTEGNHLIQLLQMESERAYACFDPCCGEGTILRSFADAVKQVGIQLDTYGVELDANRYNKAKEQLDVVIRSSFESMMISHDYFPLIFLNPPYNTELRTEKKKSEKMEFNFLKRAHHYLQDGGIMVYVIPYDRFARDEISYFLAKNYEEIGLMRFGDENEEFEQFKQCVFIGRKRAATKNDTYFNDRFANFCENMSELDFVREHVNTLAQMVNRKSWTIPTLRNQNKLIFTSRVDYKDAYEGVGKSEGILTLKKRLNRGNGYSLQAEKTAAERAKMPIASGQLGLLLITGVADGLLGEGDTLHAVRGSENVFFETSFEKLETTTKEVVLQKRRAKFIIATPTGEVKELV | not soluble
GSMNPEEKTVMLYNEYAEQAVLGSILTEPELIKECPLTPEHFSPGKHFNIYFTMQDLDRKGQSVDFTSIAARVGEKLPQLGGFGYLTELAASVASTTTFKQHCQTVSEYFQKRKAISIAQQIIENVNESDDGPVKPIQEAVSELMEIEASGTDDDDGSIDEALVTVYEEIESADGNITGVPSGFTELDRMTYGYKRRNFVLIAARPSMGKTAFALKQAKNMSDNDDVVNLHSLEMGKKENIKRLIVTAGSINAQKIKAARRDFASEDWGKLSMAIGEISNSNINIFDKAGQSVNYIWSKTRQTKRKNPGKRVIVMIDYLQLLEPAKANDSRTNQISQISRDLKKMARELDVVVIALSQLSRQVEQRQDKRPMLSDLRESGQLEQDADIIEFLYRDDYYDKESESKNIVEVIIAKHRDGPVGTVSLAFIKEYGNFVNLERRFDDR | soluble
MKRALGVSVYPDHSDINQDKAYLKKASECGFTRIFMSMLEVTDGKEAVQKKFKELISYAKNLGFETILDVVPSIFDELEISYDDLTFFSELGADGIRLDTGFDGNKEAMLTFNPFGVAIELNMSNDVAYLDNILTYEANRPFLYGCHNFYPQAGTALPYDFFEKCSIRFKKEGIRTAAFISSQVGEIGPWDVNDGLPTLEMHRQLPVTVQAKHLFATNLIDDVVIGNAYASNEELEALGQLNRYQTELTIVFEEATSEIEKEIVTKNQHFRRGDITQQMIRSTEVRKKYKNEVNPPHDNQAMLQPGDVVVGNDAFGKYKNELQVVLEPHQDSRKNRVGRIIEEELVLLEFIKPWTKFRFIEK | not soluble
GMTFRDTSAIASWHAHVYFDASSRDAAWTLREQIEAHWSGKLQLGRFHERPVGPHPMWSYQLAFTQEQFADLVGWLTLNHGALDIFLHPNTGDALRDHRDAAVWIGHSHELVLSALN | soluble
MTEKLKNSKEVIAYIAECFPKCFTLEGEAKPLKIGIFQDLAERLNEDEKVSKTQLRAALRQYTSSWRYLHGVKPGAVRVDLDGNPCGELEEEHVEHAKATLAESKAKVQARRKEQAQKAREEGKAKAKPAANKKPQQPRRTNKPKVQKPTK | not soluble
MGHHHHHHSHMACYIYQLPSWVLDDLCRNMDALSEWDWMEFASYVITDLTQLRKIKSMERVQGVSITRELLWWWGMRQATVQQLVDLLCRLELYRAAQIILNWKPAPEI | not soluble
MSLTRIVLPGGAGLVGQNLVARLKARGYTNLVVLDKHEANLDVLRSVHPDITAVFADLAEPGDWARHFEGADVVVMLQAQIGAPTREPFVRNNIDSTRCVLEVIKQHAIPYTVHISSSVVKSVGEDWYTETKREQEAIVLASGIGCVVLRPTLMFGWFDRKHLGWLSRFMQRVPVFPIPGSGRYMRQPLYVGDFCNVIISCIDSRIQGQTFDITGLERIDYIDIIRQIKRVTRARCAIVRIPYGLFHILLKVYALFSKNPPFTADQLKALTAGDEFDVIDWERIFAIRATPFAQAMEETFNDPTYSHIALEEGHHHHHH | soluble
